From patent US7348140B1, “Clinical indications for genotyping polymorphic variants of G-protein coupled receptors” (Acadia Pharmaceuticals, Inc., priority 2001, dated 2008)

Tests used:
[1] = target: Cholecystokinin B receptor L224Q variant (Glutamine 224) (UniProt P32239); assay: cell-based or functional assay
[2] = target: Cholecystokinin B receptor, wild type (Leucine 224) (UniProt P32239); assay: cell-based or functional assay
Cholecystokinin B receptor, wild type (Leucine 224), sequence (P32239 whole entry): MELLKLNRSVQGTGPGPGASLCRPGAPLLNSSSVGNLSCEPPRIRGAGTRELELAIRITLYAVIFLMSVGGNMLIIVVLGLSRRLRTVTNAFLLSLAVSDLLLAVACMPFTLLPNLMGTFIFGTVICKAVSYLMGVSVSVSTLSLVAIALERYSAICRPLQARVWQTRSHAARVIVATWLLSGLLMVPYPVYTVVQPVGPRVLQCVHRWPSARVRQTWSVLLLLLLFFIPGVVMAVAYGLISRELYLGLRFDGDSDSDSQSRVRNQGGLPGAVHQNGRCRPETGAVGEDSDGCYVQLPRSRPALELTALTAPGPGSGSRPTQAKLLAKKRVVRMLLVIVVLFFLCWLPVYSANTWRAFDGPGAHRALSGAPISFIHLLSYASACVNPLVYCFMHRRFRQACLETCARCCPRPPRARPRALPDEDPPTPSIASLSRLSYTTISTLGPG

Cholecystokinin B receptor L224Q variant (Glutamine 224), sequence (P32239 whole entry L224Q): as the sequence (P32239 whole entry) above, with L224Q counted along it

- Ave -Log EC50, R-SAT functional potency [1]: 9.78 -log EC50
- FOLD (shift in functional potency against wild type; negative = gain of function) [1]: -11.7 fold
- Ave -Log EC50, R-SAT functional potency [2]: 8.71 -log EC50
Substance: Gastrin (from UniProt P01350 76-92) (peptide)
